From patent US20120276000A1

Molecular target: human CLEC14A (endogenous, in HUVECs) (human) (UniProt Q86T13)
Assay: cell-based or functional assay

Chain of UniProt Q86T13 (Q86T13 22-490): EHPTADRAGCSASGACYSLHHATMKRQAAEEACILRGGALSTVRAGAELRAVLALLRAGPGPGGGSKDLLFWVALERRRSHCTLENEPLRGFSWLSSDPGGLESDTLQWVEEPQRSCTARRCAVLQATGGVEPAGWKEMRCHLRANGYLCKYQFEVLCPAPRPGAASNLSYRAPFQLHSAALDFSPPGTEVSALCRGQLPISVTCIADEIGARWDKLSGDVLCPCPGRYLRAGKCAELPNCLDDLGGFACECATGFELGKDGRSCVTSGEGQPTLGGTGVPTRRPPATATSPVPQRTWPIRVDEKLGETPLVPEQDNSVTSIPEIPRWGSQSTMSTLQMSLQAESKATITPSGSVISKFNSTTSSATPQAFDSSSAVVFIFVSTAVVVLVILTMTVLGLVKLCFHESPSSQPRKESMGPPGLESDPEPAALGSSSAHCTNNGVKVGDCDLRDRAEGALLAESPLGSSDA

B1: anti-CLEC14A monoclonal antibody CRT-3 (antibody, from another filing, IgG1, V domains shown)
VH: EVQLQQSGTVLARPGASVKMSCKASGYTFTSYWMHWVKQRPGQGLEWIGAIYPGNSDTSYNQKFKGKAKLTAVTSTSTAYMELSSLTNEDSAVFYCTHYYGSDYAMDYWGQGTSVTV
VL: QIVLTQSPAIMSASLGERVTMTCTASSSVSSSYLHWYQQKPGSSPKLWIYSTSNLASGVPARFSGSGSGTSYSLTISSMEAEDAATYYCHQYHRSPRTFGGGTKLEIKR
B1 showed a wound area remaining open at 12 h, HUVEC scratch wound healing assay, 10 µg/ml antibody of 25%.
